We go through two substances from patent EP1674575A2.

By Kd is commonly meant a measure of binding affinity in units of concentration. A lower Kd goes with tighter binding. In general, koff refers to the first-order rate constant of dissociation. Higher therefore signals a short-lived complex. One may read the kon as the second-order rate constant of association. Read a high kon as faster complex formation.

Assay [1] addresses HVEM:Fc (extracellular region of HVEM, 1 to K184, fused to the Fc region of human IgG1) (human) (UniProt Q92956). The assay is described as follows: SPR (BIAcore). For orientation: Surface plasmon resonance follows binding to a sensor surface in real time, without labels.
Assay [2] has as its target LTβR (lymphotoxin β receptor) expressed by cells (human) (UniProt P36941). The assay is described as follows: cell-based or functional assay.
For assay [3], the target named is HVEM:Fc (extracellular region of HVEM, 1 to K184, fused to the Fc region of human IgG1) (human) (UniProt Q92956). The assay is described as follows: SPR (BIAcore), receptor:Fc amine-coupled, LIGHT mutant as analyte 100-500 nM.
HVEM:Fc (extracellular region of HVEM, 1 to K184, fused to the Fc region of human IgG1) (human), sequence (Q92956 39-184 limits assumed): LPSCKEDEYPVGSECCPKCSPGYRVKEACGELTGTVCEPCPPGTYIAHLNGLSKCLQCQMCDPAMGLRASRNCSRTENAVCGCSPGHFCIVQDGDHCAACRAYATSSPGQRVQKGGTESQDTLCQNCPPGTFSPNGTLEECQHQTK
The target in assay [4] is mouse HVEM:Fc (mouse HVEM Met1 to Ser205 fused to the Fc region of human IgG1) (mouse; human) (UniProt Q80WM9). Put plainly: ELISA, receptor:Fc capture, anti-FLAG detection. Background: An ELISA detects its analyte on a solid surface through an enzyme-linked reagent.
mouse HVEM:Fc (mouse HVEM Met1 to Ser205 fused to the Fc region of human IgG1) (mouse; human), sequence (Q80WM9 39-205): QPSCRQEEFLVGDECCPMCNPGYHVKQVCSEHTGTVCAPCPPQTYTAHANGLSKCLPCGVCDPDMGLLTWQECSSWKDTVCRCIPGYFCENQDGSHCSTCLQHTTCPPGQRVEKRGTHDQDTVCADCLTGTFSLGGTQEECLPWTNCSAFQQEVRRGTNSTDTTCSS
Assay [5] concerns the target mouse LTβR:Fc (amino acid residues 1 to Met221 of the extracellular domain of mouse LTβR) (mouse) (UniProt P50284). The assay is described as follows: ELISA, receptor:Fc capture, anti-FLAG detection.
For assay [6], the target named is HVEM:Fc (extracellular region of HVEM, 1 to K184, fused to the Fc region of human IgG1) (human) (UniProt Q92956). The assay is described as follows: SPR (BIAcore), receptor:Fc amine-coupled, LIGHT as analyte 100-500 nM.
Assay [7] concerns the target human LTβR:Fc (human) (UniProt P36941). The assay is described as above.

human LTβR:Fc (human), sequence (P36941 31-227 limits assumed): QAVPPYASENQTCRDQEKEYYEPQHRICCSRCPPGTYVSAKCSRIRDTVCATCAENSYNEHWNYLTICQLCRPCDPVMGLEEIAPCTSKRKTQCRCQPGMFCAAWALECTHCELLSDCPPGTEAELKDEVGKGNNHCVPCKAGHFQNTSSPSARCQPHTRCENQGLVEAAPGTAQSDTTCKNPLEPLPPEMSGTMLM
mouse LTβR:Fc (amino acid residues 1 to Met221 of the extracellular domain of mouse LTβR) (mouse), sequence (P50284 31-221 limits assumed): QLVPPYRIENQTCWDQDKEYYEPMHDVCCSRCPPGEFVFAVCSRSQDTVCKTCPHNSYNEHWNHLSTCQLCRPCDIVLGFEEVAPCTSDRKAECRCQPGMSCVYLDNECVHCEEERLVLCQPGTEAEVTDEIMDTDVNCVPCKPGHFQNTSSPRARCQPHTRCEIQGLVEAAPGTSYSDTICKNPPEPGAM

In turn, “LIGHTt66-FLAG mutant G119E (from UniProt O43557 67-240) (ligand)” registered a fold lower affinity than LIGHT t66 in assay [1] of 30 fold. The substance further displayed a fold induction of ICAM expression by NHDF cells (flow cytometry, 20 nM) in assay [2] of under 1.5 fold. Also, in assay [3], the Kd came out at 114 nM, the koff is 0.002 s⁻¹ and the kon was found to be 18000 M⁻¹ s⁻¹.

In assay [2], “LIGHTt66-FLAG (recombinant soluble homotrimeric human LIGHT lacking the N-terminal 66 amino acids, N-terminal FLAG epitope) (ligand)” yielded a concentration for complete inhibition of HCMV cytopathic effect of 100 pM; a dose for 50% cytotoxicity to HT29 cells (MTT, with IFNγ) of 10 to 100 pM; a fold induction of ICAM expression by NHDF cells (flow cytometry, 5 nM) of 4 fold; a growth inhibition of HT29 cells by LIGHT (0.25 nM), MTT after 72 h of 50%. In assay [4], this substance displayed a fold lower affinity (against the human receptors) of 10 fold. In assay [5], this substance had a fold lower affinity (against the human receptors) of 10 fold. In assay [6], the Kd was 3.9 nM, the koff stood at 4.8e-05 s⁻¹ and the kon came out at 12000 M⁻¹ s⁻¹. In assay [7], this substance displayed a Kd of 4.5 nM, a koff of 0.00012 s⁻¹ and a kon of 27000 M⁻¹ s⁻¹.
